Earlier results, collected in paper PMC10671529.
pKd: −log10 of the molar value.

Columns and labels:
Im9 (Escherichia coli) = Im9 (Escherichia coli) (UniProt P13479)
HigB2 (Vibrio cholerae) = HigB2 (Vibrio cholerae) (UniProt Q9KMA6)
Sequence of UniProt Q9KMA6 (Q9KMA6 whole entry): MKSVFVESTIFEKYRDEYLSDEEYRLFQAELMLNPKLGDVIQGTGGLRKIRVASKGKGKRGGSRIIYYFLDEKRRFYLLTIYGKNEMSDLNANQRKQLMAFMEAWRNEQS

Sequence of UniProt P13479 (P13479 whole entry): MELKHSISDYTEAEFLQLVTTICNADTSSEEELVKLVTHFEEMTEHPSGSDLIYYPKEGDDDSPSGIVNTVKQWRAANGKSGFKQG

Substance | pKd (Im9 (Escherichia coli)) | pKd (HigB2 (Vibrio cholerae))
colicin E9 DNase (from UniProt P09883) | 13.64 | –
HigA2 (from UniProt Q9KMA5) | – | 11.51
